In paper PMC8022333 (The FEBS journal, 2018):

Biological target: the molecule itself
Assay: crystal structure

B1: vimentin coil 1B (residues 153–238) (domain or fragment)
chain: not shown
stoichiometry N: 8
